Results as given in publication PMC3074231 (Journal of neurochemistry, 2011).
Values joined by “and” are separate entries in the source; they are usually repeats but may differ in a detail not shown here. Equal entries are not always repeated.

B1: STEP61 Cys 65 to Ser (enzyme, UniProt P54830-1 1-541, looked up)
chain: MCCSERLLGLPQPVEMEAPDEAEGLPSKQKEMPPPPPPSPPSEPAQKLPPQGAGSHSLTVRSSLSLFAASQFLLACGVLWLSGHGHSWLQNTTDLISSSLTVLNHLGPVAWLGSGTWGIPSLLLVSLTVSLVIVTTLVWHLLKAPPEPPAPLPPEDRRQSVSRQPSFTYSEWMEEKVEDDFLDLDAVPETPVFDCVMDIKPETDPASLTVKSMGLQERRGSNVSLTLDMCTPGCNEEGFGYLVSPREESAHEYLLSASRVLRAEELHEKALDPFLLQAEFFEIPMNFVDPKEYDIPGLVRKNRYKTILPNPHSRVRLTSPDPEDPLSSYINANYIRGYSGEEKVYIATQGPIVSTVADFWRMVWQERTPIIVMITNIEEMNEKCTEYWPEEQVVHDGVEITVQKVIHTEDYRLRLISLRRGTEERSLKHYWFTSWPDQKTPDRAPPLLHLVREVEEAAQQEGPHCSPIIVHCSAGIGRTGCFIATSICCQQLRREGVVDILKTTCQLRQDRGGMIQTCEQYQFVHHAMSLYEKQLSLQSSE
B2: STEP61 Cys 76 to Ser (enzyme, UniProt P54830-1 1-541, looked up)
chain: MCCSERLLGLPQPVEMEAPDEAEGLPSKQKEMPPPPPPSPPSEPAQKLPPQGAGSHSLTVRSSLCLFAASQFLLASGVLWLSGHGHSWLQNTTDLISSSLTVLNHLGPVAWLGSGTWGIPSLLLVSLTVSLVIVTTLVWHLLKAPPEPPAPLPPEDRRQSVSRQPSFTYSEWMEEKVEDDFLDLDAVPETPVFDCVMDIKPETDPASLTVKSMGLQERRGSNVSLTLDMCTPGCNEEGFGYLVSPREESAHEYLLSASRVLRAEELHEKALDPFLLQAEFFEIPMNFVDPKEYDIPGLVRKNRYKTILPNPHSRVRLTSPDPEDPLSSYINANYIRGYSGEEKVYIATQGPIVSTVADFWRMVWQERTPIIVMITNIEEMNEKCTEYWPEEQVVHDGVEITVQKVIHTEDYRLRLISLRRGTEERSLKHYWFTSWPDQKTPDRAPPLLHLVREVEEAAQQEGPHCSPIIVHCSAGIGRTGCFIATSICCQQLRREGVVDILKTTCQLRQDRGGMIQTCEQYQFVHHAMSLYEKQLSLQSSE
B3: STEP61 (STriatal Enriched Phosphatase, membrane associated isoform), wild type (enzyme, UniProt P54830-1 1-541, looked up)
chain: MCCSERLLGLPQPVEMEAPDEAEGLPSKQKEMPPPPPPSPPSEPAQKLPPQGAGSHSLTVRSSLCLFAASQFLLACGVLWLSGHGHSWLQNTTDLISSSLTVLNHLGPVAWLGSGTWGIPSLLLVSLTVSLVIVTTLVWHLLKAPPEPPAPLPPEDRRQSVSRQPSFTYSEWMEEKVEDDFLDLDAVPETPVFDCVMDIKPETDPASLTVKSMGLQERRGSNVSLTLDMCTPGCNEEGFGYLVSPREESAHEYLLSASRVLRAEELHEKALDPFLLQAEFFEIPMNFVDPKEYDIPGLVRKNRYKTILPNPHSRVRLTSPDPEDPLSSYINANYIRGYSGEEKVYIATQGPIVSTVADFWRMVWQERTPIIVMITNIEEMNEKCTEYWPEEQVVHDGVEITVQKVIHTEDYRLRLISLRRGTEERSLKHYWFTSWPDQKTPDRAPPLLHLVREVEEAAQQEGPHCSPIIVHCSAGIGRTGCFIATSICCQQLRREGVVDILKTTCQLRQDRGGMIQTCEQYQFVHHAMSLYEKQLSLQSSE
B4: STEP61 C65S/C76S (enzyme, UniProt P54830-1 1-541, looked up)
chain: MCCSERLLGLPQPVEMEAPDEAEGLPSKQKEMPPPPPPSPPSEPAQKLPPQGAGSHSLTVRSSLSLFAASQFLLASGVLWLSGHGHSWLQNTTDLISSSLTVLNHLGPVAWLGSGTWGIPSLLLVSLTVSLVIVTTLVWHLLKAPPEPPAPLPPEDRRQSVSRQPSFTYSEWMEEKVEDDFLDLDAVPETPVFDCVMDIKPETDPASLTVKSMGLQERRGSNVSLTLDMCTPGCNEEGFGYLVSPREESAHEYLLSASRVLRAEELHEKALDPFLLQAEFFEIPMNFVDPKEYDIPGLVRKNRYKTILPNPHSRVRLTSPDPEDPLSSYINANYIRGYSGEEKVYIATQGPIVSTVADFWRMVWQERTPIIVMITNIEEMNEKCTEYWPEEQVVHDGVEITVQKVIHTEDYRLRLISLRRGTEERSLKHYWFTSWPDQKTPDRAPPLLHLVREVEEAAQQEGPHCSPIIVHCSAGIGRTGCFIATSICCQQLRREGVVDILKTTCQLRQDRGGMIQTCEQYQFVHHAMSLYEKQLSLQSSE

Legend:
[1] = target: STEP46 (cytosolic isoform of STEP), wild type
[2] = target: the molecule itself; assay: co-IP
[3] = target: the molecule itself; assay: co-IP; remark: listed apart in the source

Molecule	phosphatase activity of STEP46 in the presence of H2O2, % of control [1]	co-immunoprecipitated STEP61-myc, % of WT control [2]	co-immunoprecipitated STEP61-myc, % of untreated WT control (10 mM H2O2, 5 min) [3]
STEP46 (cytosolic isoform of STEP), wild type (enzyme)	40.3 % of control	–	–
B1	–	38.4 % of control	–
B2	–	35.2 % of control	–
B3	–	–	232 % of WT control
B4	–	13.5 % of control and 16.6 % of WT control	39.4 % of WT control
